Reference: paper PMC5805628

Biological target: EGFR co-transfected into Q293 cells (UniProt P00533)
Assay: co-IP

amount in the anti-EGFR immunoprecipitate, normalized to wild type TROY	Substance
0.43	TROY CRD2 (from UniProt Q9NS68 30-423) (receptor)
0.83	TROY CRD3 (from UniProt Q9NS68 30-423) (receptor)
